Molecular target: Human IgG
Assay: plate coated with human IgG, luminescence (Imax) after CaCl2

Q: “Protein A-AQ fusion protein (from UniProt P02976 37-307; P07164 9-196)” was tested. Which concentration at which the luminescence intensity reached a plateau did it give?
A: 10 ng/mL

— US20080193980A1
